In patent publication US20240352102A1 (UNITED STATES GOVERNMENT AS REPRESENTED BY THE DEPARTMENT …, published 2024):

Target: T1, Alzheimer's disease tau (ADtau) fibrillar material (human, UniProt P10636-8 2-441, limits assumed, pathological tau with phosphorylation (pS422 detected); sites otherwise not stated)
T1 construct: Aggregated, brain-derived material; also called detergent insoluble pathological tau purified from Alzheimer's disease brain tissue; Alzheimer's disease derived tau
Experiment: native dot blot densitometry, 20 ng per dot, reference recombinant tau
Protocol: Shown is a native protein dot blot loaded with equivalent mass of E. coli derived recombinant tau (top row, 20 ng) or Alzheimer's disease derived tau (ADtau) (bottom row, 20 ng). […] C57BL/6 (B6) mouse immunostaining included as controls. Insets depict TRC35 immunoreactivity at higher magnification in the CA1. Scale bar=500 um at low power magnification and 50 μm in the insets.
Characterization of TRC35 monoclonal antibodies. TRC35 monoclonal antibodies were used to dot blot equivalent amounts (20 ng) E. coli-expressed native recombinant tau protein and Alzheimer's disease tau (ADtau) fibrillar material. […] Protein preparations were not denatured prior to blotting to preserve native conformations expected of a conformation dependent monoclonal antibody. Dot blots were performed using the Bio-Dot Microfiltration Apparatus as recommended by the manufacturer (Bio-Rad, catalog #170-6545). Membranes were blocked in blocking solution [20 mM Tris, 500 mM NaCl, 1% bovine serum albumin (w/v) | and probed with TRC35 at 1:50,000 as primary antibody in TTBS buffer [20 mM Tris, 500 mM NaCl, 1% bovine serum albumin (w/v), 0.5% (w/v) Tween20]. Blots were washed 3 times in TTBS to remove excess primary antibody. […] Immunoreactivity was measured using Clarity Western ECL reagents (Bio-Rad) Images were scanned and quantitated using LI-COR Image Studio software.

T1 sequence (P10636 other isoform, or with tags, fused parts or gaps limits assumed): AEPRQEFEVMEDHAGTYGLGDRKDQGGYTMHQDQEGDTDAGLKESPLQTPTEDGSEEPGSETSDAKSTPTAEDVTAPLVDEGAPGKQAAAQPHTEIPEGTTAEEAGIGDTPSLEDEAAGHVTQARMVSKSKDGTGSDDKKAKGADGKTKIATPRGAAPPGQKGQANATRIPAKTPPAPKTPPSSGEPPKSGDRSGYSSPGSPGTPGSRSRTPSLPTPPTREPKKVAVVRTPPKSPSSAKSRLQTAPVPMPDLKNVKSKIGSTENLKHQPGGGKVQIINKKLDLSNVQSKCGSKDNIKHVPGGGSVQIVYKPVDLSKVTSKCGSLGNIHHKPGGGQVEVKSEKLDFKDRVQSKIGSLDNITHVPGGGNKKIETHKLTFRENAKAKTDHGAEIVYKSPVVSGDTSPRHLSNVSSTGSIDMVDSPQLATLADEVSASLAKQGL

B1: mAb TRC35 (antibody, V domains shown)
VH: QVQLQQPGTELVKPGASVKLSCKASGYTFTSYWLQWVKQRPGQGLEWIGEIDPSDSYTNYNQKFKGKATLTVDTSSSTAYMQLSSLTSEDSAVYYCATLTGSWGQGTTLAVSS
VL: DVLLTQTPLSLPVSLGDQASISCRASQSIVDSNGNTFLEWYLQKSGQSPKVLIYKVSNRFSGVPDRFSGRGSGTDFTLKISRVEAEDLGVYYCFQGSHVPYTFGGGTKLEIK
notes: Mouse hybridoma monoclonal antibody raised in tau knockout mice against tau/poly(A) RNA complexes; IgG1 isotype, kappa light chain; also called TRC35 monoclonal antibody; hybridoma clone #35
  fold selectivity for ADtau over native tau: 8 fold
